# Measurements reported in PMC9775241, “One-Step Photochemical Immobilization of Aptamer on Graphene for Label-Free Detection of NT-proBNP”.
# Assays:
# NT-proBNP = NT-proBNP (UniProt P16860 27-102); assay: graphene field-effect transistor (GFET) aptasensor; LOD 0.01 pg/mL, range 0.1-10^4 pg/mL; Langmuir KD calculated but value not in material; PBS (137 mM NaCl, 2.7 mM KCl, 10 mM phosphate) used for immobilization and blank; sensing buffer dilution, pH and temperature not given in material; aptamer on; settings: protein: commercial
# [1] = molecular target: cTnI (cardiac troponin I) (UniProt P19429 2-210); assay: graphene field-effect transistor (GFET) aptasensor; cTnI 3.5 ng/mL; no significant response; PBS (137 mM NaCl, 2.7 mM KCl, 10 mM phosphate) used for immobilization and blank; sensing buffer dilution, pH and temperature not given in material; aptamer on; settings: protein: commercial
# Sequence of cTnI (cardiac troponin I) (P19429 2-210): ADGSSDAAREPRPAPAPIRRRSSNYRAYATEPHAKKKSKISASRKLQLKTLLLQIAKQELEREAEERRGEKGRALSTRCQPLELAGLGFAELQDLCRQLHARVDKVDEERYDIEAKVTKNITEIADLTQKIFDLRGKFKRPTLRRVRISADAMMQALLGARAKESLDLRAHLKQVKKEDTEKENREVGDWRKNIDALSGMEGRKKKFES
# Sequence of NT-proBNP (P16860 27-102): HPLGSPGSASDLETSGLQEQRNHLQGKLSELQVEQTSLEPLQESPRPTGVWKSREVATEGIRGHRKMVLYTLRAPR
binder,measurement,setting,value
"azide-modified NT-proBNP aptamer (N20a in Fig. S3 legend) (ssDNA, 5'-NH2; 3'-azide (N3), photochemically coupled to graphene) DNA: GGCAGGAAGACAAACAGGTCGTAGTGGAAACTGTCCACCGTAGACCGGTTATCTAGTGGTCTGTGGTGCTGT",binding result,NT-proBNP,binds
same,binding result,[1],no binding
